# Experimental data published in patent US20120302734A1 (COMMONWEALTH SCIENTIFIC AND INDUSTRIAL RESEARCH ORGANISATION, published 2012).
# Molecular target: the molecule itself
# Test: dynamic light scattering after SDS removal, against 9.2 nm for the monomeric SDS-protein solution; self-association
# Method: The AmelF3 honeybee silk protein was expressed into the inclusion bodies of E. coli. AmelF3 inclusion bodies were unfolded using equivalent dry weight of the detergent sodium dodecyl sulphate (SDS) to generate 2-4% monomeric protein solutions. Dynamic light scattering (DLS) measured the hydrodynamic diameter of particles in the protein-detergent solution diluted ten-fold in 100 mM NaCl as 9.2+/−0.1 nm (peak containing 98.2% of particle volume). The diameter of SDS micelles in 3% SDS solutions without protein under the same experimental conditions was a single peak at 5.5+/−0.2 nm. No SDS micelles were detected in the SDS—protein solutions confirming that the majority of the SDS was bound to the protein.
# Proteins were refolded by removing SDS using KCl. […] The protein solutions were dialysed against water to reduce salt levels then concentrated by dialysis against PEG8000, resulting in 3-4% protein and 0.2-0.4% SDS concentration.
protein,measurement,value
"Honeybee silk protein Xenospira3 (AmelF3), recombinant, without signal peptide (other, The cloning primer may add an N-terminal Met) GVEEFKSSATEEVISKNLEVDLLKNVDTSAKRRENGAPVLGKNTLQSLEKIKTSASVNAKAAAVVKASALALAEAYLRASALSAAASAKAAAALKNAQQAQLNAQEKSLAALKAQSEEEAASARANAATAATQSALERAQASSRLATVAQNVASDLQKRTSTKAAAEAAATLRQLQDAERTKWSANAALEVSAAAAAAETKTTASSEAANAAAKKAAAIASDADGAERSASTEAQSAAKIESVAAAEGSANSASEDSRAAQLEASTAARANVAAAVGDGAIIGLGEEAGAAAQLLAQAKALAEVSSKSENIEDKKF",binding result,binds
